± gives the uncertainty stated by the source.
B1: POU domain, class 3, transcription factor 2, residues 356 to 411; numbered along this chain, P20265 (parent)
chain: KKRTSIEVSVKGALESHFLKCPKPSAQEITSLADSLQLEKEVVRVWFCNRRQKEKR

Variants of: B1
Experiment: abundance fitness (aPCA) (normalised: wild type 0, dead -1); higher = more abundant; growth selection in yeast, the domain comes from the species named
Conditions: Homo sapiens

Point of comparison: KKRTSIEVSFKGALESHFLKCPKPSAQEITSLADSLQLEKEVVRVWFCNRRQKEKR [V10F], abundance fitness -0.568 ± 0.21. Against it:
- KKRTSIEVNVKGALESHFLKCPKPSAQEITSLADSLQLEKEVVRVWFCNRRQKEKR [S9N] — higher, -0.198 ± 0.12
- KKRTSIEVQVKGALESHFLKCPKPSAQEITSLADSLQLEKEVVRVWFCNRRQKEKR [S9Q] — higher, 0.1 ± 0.21
- KKRTSIEVIVKGALESHFLKCPKPSAQEITSLADSLQLEKEVVRVWFCNRRQKEKR [S9I] — within error, -0.197 ± 0.17
- KKRTSIEVYVKGALESHFLKCPKPSAQEITSLADSLQLEKEVVRVWFCNRRQKEKR [S9Y] — within error, -0.267 ± 0.19
- KKRTSIEVRVKGALESHFLKCPKPSAQEITSLADSLQLEKEVVRVWFCNRRQKEKR [S9R] — higher, 0.108 ± 0.1
- KKRTSIEVKVKGALESHFLKCPKPSAQEITSLADSLQLEKEVVRVWFCNRRQKEKR [S9K] — higher, 0.109 ± 0.12
- KKRTSIEVEVKGALESHFLKCPKPSAQEITSLADSLQLEKEVVRVWFCNRRQKEKR [S9E] — higher, 0.046 ± 0.12
- KKRTSIEVGVKGALESHFLKCPKPSAQEITSLADSLQLEKEVVRVWFCNRRQKEKR [S9G] — higher, 0.046 ± 0.074
- KKRTSIEVMVKGALESHFLKCPKPSAQEITSLADSLQLEKEVVRVWFCNRRQKEKR [S9M] — higher, -0.025 ± 0.14
- KKRTSIEVVVKGALESHFLKCPKPSAQEITSLADSLQLEKEVVRVWFCNRRQKEKR [S9V] — higher, -0.123 ± 0.083
- KKRTSIEVFVKGALESHFLKCPKPSAQEITSLADSLQLEKEVVRVWFCNRRQKEKR [S9F] — within error, -0.366 ± 0.1
- KKRTSIEVLVKGALESHFLKCPKPSAQEITSLADSLQLEKEVVRVWFCNRRQKEKR [S9L] — higher, -0.153 ± 0.11
- KKRTSIEVPVKGALESHFLKCPKPSAQEITSLADSLQLEKEVVRVWFCNRRQKEKR [S9P] — higher, -0.041 ± 0.19
- KKRTSIEVWVKGALESHFLKCPKPSAQEITSLADSLQLEKEVVRVWFCNRRQKEKR [S9W] — higher, 0.004 ± 0.11
- KKRTSIEVHVKGALESHFLKCPKPSAQEITSLADSLQLEKEVVRVWFCNRRQKEKR [S9H] — higher, 0.057 ± 0.24
- KKRTSIEVTVKGALESHFLKCPKPSAQEITSLADSLQLEKEVVRVWFCNRRQKEKR [S9T] — higher, 0.09 ± 0.091
- KKRTSIETSVKGALESHFLKCPKPSAQEITSLADSLQLEKEVVRVWFCNRRQKEKR [V8T] — higher, 0.011 ± 0.11
- KKRTSIEWSVKGALESHFLKCPKPSAQEITSLADSLQLEKEVVRVWFCNRRQKEKR [V8W] — higher, -0.131 ± 0.1
- KKRTSIESSVKGALESHFLKCPKPSAQEITSLADSLQLEKEVVRVWFCNRRQKEKR [V8S] — higher, 0.096 ± 0.079
- KKRTSIEVSVFGALESHFLKCPKPSAQEITSLADSLQLEKEVVRVWFCNRRQKEKR [K11F] — higher, -0.139 ± 0.2
- KKRTSIEVSVDGALESHFLKCPKPSAQEITSLADSLQLEKEVVRVWFCNRRQKEKR [K11D] — higher, 0.099 ± 0.13
- KKRTSIEVSVEGALESHFLKCPKPSAQEITSLADSLQLEKEVVRVWFCNRRQKEKR [K11E] — higher, 0.038 ± 0.11
- KKRTSIEVSVMGALESHFLKCPKPSAQEITSLADSLQLEKEVVRVWFCNRRQKEKR [K11M] — higher, -0.041 ± 0.12
- KKRTSIEVSVCGALESHFLKCPKPSAQEITSLADSLQLEKEVVRVWFCNRRQKEKR [K11C] — within error, -0.264 ± 0.13
- KKRTSIEVSVRGALESHFLKCPKPSAQEITSLADSLQLEKEVVRVWFCNRRQKEKR [K11R] — higher, -0.126 ± 0.082
- KKRTSIEVSVLGALESHFLKCPKPSAQEITSLADSLQLEKEVVRVWFCNRRQKEKR [K11L] — higher, 0.03 ± 0.087
- KKRTSIEVSVIGALESHFLKCPKPSAQEITSLADSLQLEKEVVRVWFCNRRQKEKR [K11I] — higher, 0.074 ± 0.13
- KKRTSIEVSVAGALESHFLKCPKPSAQEITSLADSLQLEKEVVRVWFCNRRQKEKR [K11A] — higher, -0.094 ± 0.091
- KKRTSIEVSVHGALESHFLKCPKPSAQEITSLADSLQLEKEVVRVWFCNRRQKEKR [K11H] — higher, 0.031 ± 0.12
- KKRTSIEVSVGGALESHFLKCPKPSAQEITSLADSLQLEKEVVRVWFCNRRQKEKR [K11G] — higher, -0.134 ± 0.091
- KKRTSIEVSVNGALESHFLKCPKPSAQEITSLADSLQLEKEVVRVWFCNRRQKEKR [K11N] — higher, -0.143 ± 0.15
- KKRTSIEVSVPGALESHFLKCPKPSAQEITSLADSLQLEKEVVRVWFCNRRQKEKR [K11P] — within error, -0.269 ± 0.13
- KKRTSIEVSTKGALESHFLKCPKPSAQEITSLADSLQLEKEVVRVWFCNRRQKEKR [V10T] — higher, 0.046 ± 0.11
- KKRTSIEVSEKGALESHFLKCPKPSAQEITSLADSLQLEKEVVRVWFCNRRQKEKR [V10E] — higher, -0.068 ± 0.13
- KKRTSIEVSLKGALESHFLKCPKPSAQEITSLADSLQLEKEVVRVWFCNRRQKEKR [V10L] — higher, -0.134 ± 0.091
- KKRTSIEVSHKGALESHFLKCPKPSAQEITSLADSLQLEKEVVRVWFCNRRQKEKR [V10H] — higher, -0.095 ± 0.24
- KKRTSIEVSCKGALESHFLKCPKPSAQEITSLADSLQLEKEVVRVWFCNRRQKEKR [V10C] — within error, -0.294 ± 0.14
- KKRTSIEVSIKGALESHFLKCPKPSAQEITSLADSLQLEKEVVRVWFCNRRQKEKR [V10I] — higher, -0.013 ± 0.12
- KKRTSIEVSKKGALESHFLKCPKPSAQEITSLADSLQLEKEVVRVWFCNRRQKEKR [V10K] — higher, 0.041 ± 0.12
- KKRTSIEVSPKGALESHFLKCPKPSAQEITSLADSLQLEKEVVRVWFCNRRQKEKR [V10P] — within error, -0.554 ± 0.17
- KKRTSIEVSMKGALESHFLKCPKPSAQEITSLADSLQLEKEVVRVWFCNRRQKEKR [V10M] — higher, -0.134 ± 0.16
- KKRTSIEVSWKGALESHFLKCPKPSAQEITSLADSLQLEKEVVRVWFCNRRQKEKR [V10W] — higher, -0.19 ± 0.1
- KKRTSIEVSRKGALESHFLKCPKPSAQEITSLADSLQLEKEVVRVWFCNRRQKEKR [V10R] — higher, -0.266 ± 0.09
- KKRTSIEVSAKGALESHFLKCPKPSAQEITSLADSLQLEKEVVRVWFCNRRQKEKR [V10A] — higher, -0.036 ± 0.08
- KKRTSIEVSQKGALESHFLKCPKPSAQEITSLADSLQLEKEVVRVWFCNRRQKEKR [V10Q] — higher, -0.13 ± 0.17
- KKRTSIEVSGKGALESHFLKCPKPSAQEITSLADSLQLEKEVVRVWFCNRRQKEKR [V10G] — within error, -0.318 ± 0.077
